Measured values published in PMC9482650, “Quantitative fragmentomics allow affinity mapping of interactomes” (Nature Communications, 2022).

How the values were obtained:
Assay in all cases: holdup assay
Parameters in all cases: key: below the threshold = too weak to quantify, mostly under pKd 3.1 to 4
Details in all cases: plain residues with an end cap or a label only (N-terminal biotin on a linker: ado-ado)
ARHGEF12, Q9NZN5-2 = target: ARHGEF12, Q9NZN5-2
PDZD7_3, Q9H5P4 = target: T1, PDZD7_3, Q9H5P4
T1 sequence (Q9H5P4 857-944, limits assumed, looked up): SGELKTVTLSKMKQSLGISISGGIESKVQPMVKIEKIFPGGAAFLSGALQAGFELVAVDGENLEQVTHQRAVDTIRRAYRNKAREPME

APBA3_1, O96018 = target: T2, APBA3_1, O96018
T2 sequence (O96018 389-490, limits assumed, looked up): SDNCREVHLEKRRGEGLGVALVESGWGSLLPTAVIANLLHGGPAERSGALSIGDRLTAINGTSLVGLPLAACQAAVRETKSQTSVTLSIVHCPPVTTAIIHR

GRIP2_3, Q9C0E4 = target: GRIP2_3, Q9C0E4
Sequence of GRIP2_3, Q9C0E4 (Q9C0E4 238-339): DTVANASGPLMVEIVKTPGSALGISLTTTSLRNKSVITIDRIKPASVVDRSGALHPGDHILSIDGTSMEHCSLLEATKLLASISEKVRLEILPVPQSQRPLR

SCRIB_3, Q14160 = target: SCRIB_3, Q14160
Sequence of SCRIB_3, Q14160 (Q14160 999-1103): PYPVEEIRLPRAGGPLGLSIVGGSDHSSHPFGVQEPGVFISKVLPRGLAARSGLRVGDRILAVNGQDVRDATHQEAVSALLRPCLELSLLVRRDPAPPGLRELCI

PARD3B_1, Q8TEW8 = target: T3, PARD3B_1, Q8TEW8
T3 sequence (Q8TEW8 196-299, limits assumed, looked up): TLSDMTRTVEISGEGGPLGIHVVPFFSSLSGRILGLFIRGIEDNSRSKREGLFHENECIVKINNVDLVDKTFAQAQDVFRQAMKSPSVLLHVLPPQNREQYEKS

MAGI1_2, Q96QZ7 = target: MAGI1_2, Q96QZ7
Sequence of MAGI1_2, Q96QZ7 (Q96QZ7 456-580): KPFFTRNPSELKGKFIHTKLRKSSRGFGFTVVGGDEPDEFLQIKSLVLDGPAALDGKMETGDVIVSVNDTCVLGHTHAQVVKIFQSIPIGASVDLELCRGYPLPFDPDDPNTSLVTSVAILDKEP

HTRA3, P83110 = target: T4, HTRA3, P83110
T4 sequence (P83110 354-453, limits assumed, looked up): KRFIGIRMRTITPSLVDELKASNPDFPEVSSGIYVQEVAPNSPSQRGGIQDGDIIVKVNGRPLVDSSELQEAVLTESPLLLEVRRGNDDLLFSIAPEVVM

GRIP2_7, Q9C0E4 = target: GRIP2_7, Q9C0E4
Sequence of GRIP2_7, Q9C0E4 (Q9C0E4 934-1023): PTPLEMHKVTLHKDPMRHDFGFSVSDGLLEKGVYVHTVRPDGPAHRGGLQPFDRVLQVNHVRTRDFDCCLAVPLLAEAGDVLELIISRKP

APBA2_1, Q99767 = target: T5, APBA2_1, Q99767
T5 sequence (Q99767 563-664, limits assumed, looked up): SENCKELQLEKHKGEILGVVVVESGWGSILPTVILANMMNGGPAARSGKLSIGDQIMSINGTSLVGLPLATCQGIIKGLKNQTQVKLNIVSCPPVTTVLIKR

SCRIB_1, Q14160 = target: SCRIB_1, Q14160
Sequence of SCRIB_1, Q14160 (Q14160 718-814): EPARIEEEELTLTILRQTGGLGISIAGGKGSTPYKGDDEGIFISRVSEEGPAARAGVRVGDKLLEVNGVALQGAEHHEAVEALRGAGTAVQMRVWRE

CASK, O14936 = target: CASK, O14936
Sequence of CASK, O14936 (O14936 487-570): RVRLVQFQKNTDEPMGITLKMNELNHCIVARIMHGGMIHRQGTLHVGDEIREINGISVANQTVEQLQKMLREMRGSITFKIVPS

SIPA1L2, Q9P2F8 = target: T6, SIPA1L2, Q9P2F8
T6 sequence (Q9P2F8 945-1036, limits assumed, looked up): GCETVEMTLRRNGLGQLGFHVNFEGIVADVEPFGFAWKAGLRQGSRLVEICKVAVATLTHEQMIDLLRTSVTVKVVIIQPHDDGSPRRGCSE

TJP1_2, Q07157 = target: TJP1_2, Q07157
Sequence of TJP1_2, Q07157 (Q07157 181-274): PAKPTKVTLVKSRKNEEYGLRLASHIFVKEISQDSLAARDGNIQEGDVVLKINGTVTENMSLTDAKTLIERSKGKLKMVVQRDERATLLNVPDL

DLG2_2, Q15700 = target: DLG2_2, Q15700
Sequence of DLG2_2, Q15700 (Q15700 189-283): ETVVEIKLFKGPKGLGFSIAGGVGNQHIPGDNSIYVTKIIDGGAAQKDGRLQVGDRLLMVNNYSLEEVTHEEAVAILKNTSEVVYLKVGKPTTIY

NHERF3_3, Q5T2W1 = target: T7, NHERF3_3, Q5T2W1
T7 sequence (Q5T2W1 238-333, limits assumed, looked up): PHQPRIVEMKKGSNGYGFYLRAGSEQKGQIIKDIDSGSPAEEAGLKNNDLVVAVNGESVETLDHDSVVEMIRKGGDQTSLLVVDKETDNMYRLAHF

NHERF4_2, Q86UT5 = target: NHERF4_2, Q86UT5
Sequence of NHERF4_2, Q86UT5 (Q86UT5 220-308): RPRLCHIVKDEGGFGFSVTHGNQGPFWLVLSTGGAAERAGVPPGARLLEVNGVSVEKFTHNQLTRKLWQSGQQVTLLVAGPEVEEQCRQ

GORASP1, Q9BQQ3 = target: GORASP1, Q9BQQ3
Sequence of GORASP1, Q9BQQ3 (Q9BQQ3 1-208): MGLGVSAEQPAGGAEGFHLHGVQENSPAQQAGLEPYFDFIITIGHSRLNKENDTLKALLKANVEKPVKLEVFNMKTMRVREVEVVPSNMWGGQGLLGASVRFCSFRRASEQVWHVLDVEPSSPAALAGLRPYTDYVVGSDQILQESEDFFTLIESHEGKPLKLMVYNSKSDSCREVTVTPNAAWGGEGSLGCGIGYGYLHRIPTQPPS

LIMK2, P53671 = target: LIMK2, P53671
Sequence of LIMK2, P53671 (P53671 143-248): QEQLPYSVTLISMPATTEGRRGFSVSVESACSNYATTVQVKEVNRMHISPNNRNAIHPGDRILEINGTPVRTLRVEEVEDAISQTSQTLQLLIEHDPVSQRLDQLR

SNTA1, Q13424 = target: T8, SNTA1, Q13424
T8 sequence (Q13424 82-180, limits assumed, looked up): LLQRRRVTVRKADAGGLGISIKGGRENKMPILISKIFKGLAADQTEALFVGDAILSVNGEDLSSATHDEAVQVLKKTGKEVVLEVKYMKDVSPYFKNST

SNTG1, Q9NSN8 = target: T9, SNTG1, Q9NSN8
T9 sequence (Q9NSN8 52-150, limits assumed, looked up): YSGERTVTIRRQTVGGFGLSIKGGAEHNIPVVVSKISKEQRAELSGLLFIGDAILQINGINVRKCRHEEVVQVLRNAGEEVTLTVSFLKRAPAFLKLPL

DVL3, Q92997 = target: T10, DVL3, Q92997
T10 sequence (Q92997 244-331, limits assumed, looked up): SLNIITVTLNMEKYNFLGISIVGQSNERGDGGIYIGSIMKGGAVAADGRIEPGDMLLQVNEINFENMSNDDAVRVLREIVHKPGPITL

TJP2_1, Q9UDY2 = target: TJP2_1, Q9UDY2
Sequence of TJP2_1, Q9UDY2 (Q9UDY2 24-128): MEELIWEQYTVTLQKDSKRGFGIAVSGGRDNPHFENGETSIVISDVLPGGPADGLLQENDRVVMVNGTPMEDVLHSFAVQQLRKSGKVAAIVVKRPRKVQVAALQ

DFNB31_2, Q9P202 = target: T11, DFNB31_2, Q9P202
T11 sequence (Q9P202 274-371, limits assumed, looked up): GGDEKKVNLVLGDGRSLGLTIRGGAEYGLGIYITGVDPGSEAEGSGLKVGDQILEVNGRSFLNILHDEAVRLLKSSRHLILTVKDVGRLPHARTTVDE

TJP3_3, O95049 = target: T12, TJP3_3, O95049
T12 sequence (O95049 375-456, limits assumed, looked up): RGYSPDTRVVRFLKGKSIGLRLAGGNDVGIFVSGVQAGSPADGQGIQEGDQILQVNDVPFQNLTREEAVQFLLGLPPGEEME

PARD3_3, Q8TEW0 = target: PARD3_3, Q8TEW0
Sequence of PARD3_3, Q8TEW0 (Q8TEW0 582-685): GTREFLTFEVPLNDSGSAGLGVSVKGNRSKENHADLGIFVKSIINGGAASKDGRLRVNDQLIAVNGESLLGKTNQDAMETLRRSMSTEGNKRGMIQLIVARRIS

Sequence of ARHGEF12, Q9NZN5-2 (Q9NZN5 other isoform, or with tags, fused parts or gaps): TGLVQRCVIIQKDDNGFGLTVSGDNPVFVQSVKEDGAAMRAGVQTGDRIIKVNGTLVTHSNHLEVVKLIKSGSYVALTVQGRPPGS

With GNSVLKSTQF [SLC22A12, Q96S37] the pKd (ARHGEF12, Q9NZN5-2) was “below the threshold”, the pKd (PDZD7_3, Q9H5P4) was 4 and the pKd (APBA3_1, O96018) was “below the threshold”. For the same binder, the pKd (GRIP2_3, Q9C0E4) was “below the threshold”, the pKd (SCRIB_3, Q14160) was “below the threshold” and the pKd (PARD3B_1, Q8TEW8) was 4.21. For the same binder, the pKd (MAGI1_2, Q96QZ7) was “below the threshold”, the pKd (HTRA3, P83110) was “below the threshold” and the pKd (GRIP2_7, Q9C0E4) was “below the threshold”. The pKd (APBA2_1, Q99767) was “below the threshold”, the pKd (SCRIB_1, Q14160) was “below the threshold” and the pKd (CASK, O14936) was “below the threshold”. The pKd (SIPA1L2, Q9P2F8) was “below the threshold”, the pKd (TJP1_2, Q07157) was “below the threshold” and the pKd (DLG2_2, Q15700) was “below the threshold”. The pKd (NHERF3_3, Q5T2W1) was “below the threshold”, the pKd (NHERF4_2, Q86UT5) was “below the threshold” and the pKd (GORASP1, Q9BQQ3) was “below the threshold”. The pKd (LIMK2, P53671) was “below the threshold”, the pKd (SNTA1, Q13424) was “below the threshold” and the pKd (SNTG1, Q9NSN8) was “below the threshold”. For the same binder, the pKd (DVL3, Q92997) was “below the threshold”, the pKd (TJP2_1, Q9UDY2) was “below the threshold” and the pKd (DFNB31_2, Q9P202) was “below the threshold”. The pKd (TJP3_3, O95049) was “below the threshold” and the pKd (PARD3_3, Q8TEW0) was “below the threshold”.

For IPLDGETEEL [MYOZ1, Q9NP98], the pKd (ARHGEF12, Q9NZN5-2) was “below the threshold”, the pKd (PDZD7_3, Q9H5P4) was “below the threshold” and the pKd (APBA3_1, O96018) was “below the threshold”. The pKd (GRIP2_3, Q9C0E4) was “below the threshold”, the pKd (SCRIB_3, Q14160) was “below the threshold” and the pKd (PARD3B_1, Q8TEW8) was “below the threshold”. For the same binder, the pKd (MAGI1_2, Q96QZ7) was “below the threshold”, the pKd (HTRA3, P83110) was “below the threshold” and the pKd (GRIP2_7, Q9C0E4) was “below the threshold”. The pKd (APBA2_1, Q99767) was “below the threshold”, the pKd (SCRIB_1, Q14160) was “below the threshold” and the pKd (CASK, O14936) was “below the threshold”. For the same binder, the pKd (SIPA1L2, Q9P2F8) was “below the threshold”, the pKd (TJP1_2, Q07157) was “below the threshold” and the pKd (DLG2_2, Q15700) was “below the threshold”. For the same binder, the pKd (NHERF3_3, Q5T2W1) was “below the threshold”, the pKd (NHERF4_2, Q86UT5) was “below the threshold” and the pKd (GORASP1, Q9BQQ3) was “below the threshold”. The pKd (LIMK2, P53671) was “below the threshold”, the pKd (SNTA1, Q13424) was “below the threshold” and the pKd (SNTG1, Q9NSN8) was “below the threshold”. The pKd (DVL3, Q92997) was “below the threshold”, the pKd (TJP2_1, Q9UDY2) was “below the threshold” and the pKd (DFNB31_2, Q9P202) was “below the threshold”. For the same binder, the pKd (TJP3_3, O95049) was “below the threshold” and the pKd (PARD3_3, Q8TEW0) was 3.97.

In the case of QSLNRMEYIV [JAG1, P78504], the pKd (ARHGEF12, Q9NZN5-2) is reported as “below the threshold”, the pKd (PDZD7_3, Q9H5P4) is reported as 3.68 and the pKd (APBA3_1, O96018) is reported as “below the threshold”. The pKd (GRIP2_3, Q9C0E4) was “below the threshold”, the pKd (SCRIB_3, Q14160) was “below the threshold” and the pKd (PARD3B_1, Q8TEW8) was 3.83. The pKd (MAGI1_2, Q96QZ7) was “below the threshold”, the pKd (HTRA3, P83110) was 3.87 and the pKd (GRIP2_7, Q9C0E4) was 4.33. The pKd (APBA2_1, Q99767) was “below the threshold”, the pKd (SCRIB_1, Q14160) was “below the threshold” and the pKd (CASK, O14936) was “below the threshold”. For the same binder, the pKd (SIPA1L2, Q9P2F8) was “below the threshold”, the pKd (TJP1_2, Q07157) was “below the threshold” and the pKd (DLG2_2, Q15700) was “below the threshold”. The pKd (NHERF3_3, Q5T2W1) was “below the threshold”, the pKd (NHERF4_2, Q86UT5) was “below the threshold” and the pKd (GORASP1, Q9BQQ3) was 4.71. For the same binder, the pKd (LIMK2, P53671) was “below the threshold”, the pKd (SNTA1, Q13424) was “below the threshold” and the pKd (SNTG1, Q9NSN8) was “below the threshold”. The pKd (DVL3, Q92997) was 3.78, the pKd (TJP2_1, Q9UDY2) was “below the threshold” and the pKd (DFNB31_2, Q9P202) was “below the threshold”. For the same binder, the pKd (TJP3_3, O95049) was “below the threshold” and the pKd (PARD3_3, Q8TEW0) was 4.37.

For RHGSCVETSL [TMEM151B, Q8IW70], the pKd (ARHGEF12, Q9NZN5-2) was 5.07, the pKd (PDZD7_3, Q9H5P4) was 4.46 and the pKd (APBA3_1, O96018) was “below the threshold”. For the same binder, the pKd (GRIP2_3, Q9C0E4) was “below the threshold”, the pKd (SCRIB_3, Q14160) was 5.36 and the pKd (PARD3B_1, Q8TEW8) was 3.95. The pKd (MAGI1_2, Q96QZ7) was 3.76, the pKd (HTRA3, P83110) was “below the threshold” and the pKd (GRIP2_7, Q9C0E4) was “below the threshold”. The pKd (APBA2_1, Q99767) was “below the threshold”, the pKd (SCRIB_1, Q14160) was 5.5 and the pKd (CASK, O14936) was “below the threshold”. The pKd (SIPA1L2, Q9P2F8) was “below the threshold”, the pKd (TJP1_2, Q07157) was “below the threshold” and the pKd (DLG2_2, Q15700) was 4.32. For the same binder, the pKd (NHERF3_3, Q5T2W1) was “below the threshold”, the pKd (NHERF4_2, Q86UT5) was “below the threshold” and the pKd (GORASP1, Q9BQQ3) was “below the threshold”. The pKd (LIMK2, P53671) was “below the threshold”, the pKd (SNTA1, Q13424) was 4.82 and the pKd (SNTG1, Q9NSN8) was 4.45. The pKd (DVL3, Q92997) was “below the threshold”, the pKd (TJP2_1, Q9UDY2) was “below the threshold” and the pKd (DFNB31_2, Q9P202) was “below the threshold”. For the same binder, the pKd (TJP3_3, O95049) was “below the threshold” and the pKd (PARD3_3, Q8TEW0) was 3.59.
